Assay results reported in PMC5402698.

Legend:
[1] = molecular target: T1, EcoRV endonuclease (wild type) (UniProt P04390 2-245); assay: X-ray crystallography
[2] = molecular target: T1, EcoRV endonuclease (wild type); assay: NMR
[3] = molecular target: T1, EcoRV endonuclease (wild type); assay: X-ray crystallography; remark: listed apart in the source
[4] = molecular target: T1, EcoRV endonuclease (wild type); assay: NMR; remark: listed apart in the source
[5] = molecular target: T1, EcoRV endonuclease (wild type); assay: NMR; remark: listed apart in the source

T1 sequence (P04390 2-245): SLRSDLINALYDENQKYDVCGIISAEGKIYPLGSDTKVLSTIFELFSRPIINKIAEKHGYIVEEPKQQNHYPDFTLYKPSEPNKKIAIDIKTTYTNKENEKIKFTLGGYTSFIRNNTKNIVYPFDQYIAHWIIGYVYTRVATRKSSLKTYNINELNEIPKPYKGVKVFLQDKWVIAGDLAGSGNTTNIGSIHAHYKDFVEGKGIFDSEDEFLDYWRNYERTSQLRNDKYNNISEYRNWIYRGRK

B1: cognate 12 bp crystal duplex (dsDNA)
DNA 1: AAAGATATCTTT
DNA 2: AAAGATATCTTT
- binding result [1]: binds

B2: nonspecific 16 bp inverted site CTATAG (dsDNA)
DNA 1: GCAAACTATAGTTTCG
DNA 2: CGAAACTATAGTTTGC
- binding result [2]: binds

B3: cleaved 12 bp crystal duplex (dsDNA)
DNA 1: AAAGAT
DNA 2: ATCTTT
- binding result [3]: binds

B4: cognate 16 bp GATATC (dsDNA)
DNA 1: GCAAAGATATCTTTCG
DNA 2: CGAAAGATATCTTTGC
- binding result [4]: binds

B5: cleaved 24 bp duplex products (dsDNA)
DNA 1: CGCTGGAAAGAT
DNA 2: ATCTTTCCAGCG
DNA 3: ATCTTTGGAGGC
DNA 4: GCCTCCAAAGAT
- binding result [5]: binds
